Where “and” joins values, the source holds several entries; their conditions need not be identical. Identical values can stand only once.
Experiments:
[1] = biological target: Taxol-stabilised microtubules polymerised from porcine brain tubulin (porcine) (UniProt P02550); test: co-sedimentation
[2] = biological target: subtilisin-digested microtubules (lacking E-hooks) (porcine) (UniProt P02550); test: co-sedimentation

Sequence of UniProt P02550 (P02550 whole entry, looked up): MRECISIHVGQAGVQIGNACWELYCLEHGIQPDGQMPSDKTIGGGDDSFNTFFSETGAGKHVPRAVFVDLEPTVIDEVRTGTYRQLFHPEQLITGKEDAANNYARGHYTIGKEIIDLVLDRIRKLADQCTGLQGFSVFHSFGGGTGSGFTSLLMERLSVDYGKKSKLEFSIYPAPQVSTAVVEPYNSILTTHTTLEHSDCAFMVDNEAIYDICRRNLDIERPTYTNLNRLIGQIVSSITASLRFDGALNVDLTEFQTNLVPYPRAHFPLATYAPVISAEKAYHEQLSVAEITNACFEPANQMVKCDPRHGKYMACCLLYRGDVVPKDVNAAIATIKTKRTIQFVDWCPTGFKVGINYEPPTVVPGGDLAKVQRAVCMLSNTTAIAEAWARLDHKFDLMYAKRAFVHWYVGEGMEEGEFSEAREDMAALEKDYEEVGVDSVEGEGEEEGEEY

Substance	Shift to pellet (%) [1]	Shift to pellet (%) [2] [%]
KLP-18 C-stalk (C-terminal half of the KLP-18 stalk) (domain or fragment)	52.7% and 50.8%	26.7
MBP-MESP-1 (natural protein)	56.1% and 41.6%	–
